The source of these data is patent US20240307509A1, “PLACENTAL ALKALINE PHOSPHATASE FOR STARTING EARLY TREATMENT OF CANCER PATIENTS EXHIBITING NO DETECTABLE LOSS OF BODY AND MUSCLE WEIGHT AS YET TO PREVENT OR REDUCE THE LOSS OF MUSCLE PROTEINS” (MNPHARM SBC, priority 2021, published 2024).

The subject of series [1] is L6 myoblasts. Put plainly: Proliferation of L6 myoblasts with or without IGF-1 (MTT assay). It is filed as cell-based. Particulars: serum-free medium, 72 hours; IGF-1 50 nM, rPLAP 150 nM, PLAP 150 nM. Here is the method: L6 myoblasts were grown in 96-well plates in 10% FBS containing DMEM up to 30% confluency. Then the medium was changed to serum-free medium, and after 2 hours, cells were treated with IGF-1 (50 nM), or rPLAP (150 nM), or PLAP (150 nM) in the absence or presence of IGF-1 for 72 hours, followed by the MTT assay (absorbance; A540) as described by others assay [Carmichael, J, De Graff, W.G., Gazdar, A.F., Minna, J.D. and Mitchell, J.B. Evaluation of tetrazolium-based semiautomated colorimetric assay: Assessment of chemosensitivity testing. Cancer Res. 47, 936-942, 1987].
(In general: Tetrazolium assays rely on reduction of a dye to a coloured formazan, in cell work by metabolically active cells.)

The test system of series [2] is L6 myoblasts. Put plainly: Proliferation of L6 myoblasts in the presence of myostatin (MTT assay). The class given is cell-based. Particulars: 96 hours. Here is the method:
In this experiment, L6 myoblasts were seeded in 10% serum containing Dulbecco's modified Eagles (DMEM) medium in 96-well plates (n=8 for each treatment). After 24 hours at 30% confluence, the medium was changed to 2% serum-containing medium (0 time) and then treated with 0.25 μg/ml or 1 ug/ml myostatin (MSTN-from the R&D Systems-catalog no. 788-GB-010) in the absence or presence of 25 nM, 100 nM, or 200 nM PLAP for 96 hours. The relative number of viable cells (A540) was determined by the MTT assay [Carmichael, J, De Graff, W.G., Gazdar, A.F., Minna, J.D. and Mitchell, J.B. Evaluation of tetrazolium-based semiautomated colorimetric assay: Assessment of chemosensitivity testing. Cancer Res. 47, 936-942, 1987]. The value measured at 0 time is subtracted from the 96-hour values.

The subject of series [3] is T47D human breast cancer tumor. Kind of series: Skeletal muscle proteins in the Cyp treated human T47D tumor model. It is filed as in vivo, mice. Particulars: gastrocnemius, day 28; PLAP 7.5 mg per kg subcutaneously days 14, 17, 20, 23, 26; Cyp intraperitoneally days 15-27 every second day. Here is the method: PLAP and Cyp were dissolved in 0.9% sodium chloride and applied subcutaneously (PLAP) or intraperitoneally (Cyp) in […] volume. […] In the fourth and fifth groups mice also received Cyp on days 15, 17, 19, 21, 23, 25, and 27. On day 28, body weights were measured first followed by determining the tumor volumes. After the mice were put to death under anesthesia, the gastrocnemius muscles were excised to determine total proteins by using a Sigma kit.

Series [4] has as its system T47D human estrogen receptor positive breast carcinoma. Kind of series: Tumor growth and survival of Cyp treated mice bearing T47D breast carcinoma. It is filed as in vivo. Here is the method: T47D estrogen receptor positive human breast cancer cells were from American Tissue Culture Collection (10801 University Boulevard, Manassas, Virginia, 20110-2209, United States).
First generation hybrid BDF1 (C57BL female x DBA/2 male) 6 weeks old, weighing 22-23 grams, specified pathogen free (SPF) hygienic category colonies were used. The animals were kept in macrolon cage at 22-24 0 C° (45-55% humidity), with a lightning regimen of 12/12 h light/dark. The animals had free access to tap water and were fed with a sterilized standard diet (Charles River VRF1, autoclavable, Germany) ad libitum.
T47D mammary tumor pieces (maintained in mouse tail, containing about 1.5×10^6 tumor cells) were implanted subcutaneously into the intrascapular region to develop the tumors. After 15 days, when the tumor-bearing mice were first treated, the sizes of the tumors were in the 0.27-0.34 cm^3 range. PLAP and Cyp were dissolved in 0.9% sodium chloride and applied subcutaneously (PLAP) or intraperitoneally (Cyp) in 50 μl volume. In the first group (n=7), animals received no treatment. In the second group (n=7), mice were administered 120-mg/kg of Cyp on day 15 followed by eleven consecutive treatments on every second day (days 17, 19, 21, 23, 25, 27, 29, 31, 35, 37, and 39) with the same dose. In the third group (n=7), treatment with Cyp (on the same days as in group 2) was accompanied by administration of 7.5 mg per kg of PLAP on days 15, 20, 25, 30, 35, and 40. Tumor volume was measured on days 15, 18, 21, 24, 27, 31, 35, 40, and 46, and body weight was measured on day 46. Then the animals were kept without additional treatment to determine survival rates.

Series [5] is described as follows: ATP as substrate of alkaline phosphatases (unpublished data). Particulars: compared to IALP or TNAP. The class given is biochemical. An excerpt:
This invention can also use an alkaline phosphatase (AP) which is a hybrid derivative of two APs. For example, in such a hybrid one critical segment may originate from PLAP accounting for the heat stability, and another segment may originate from a different AP accounting for a higher catalytic phosphatase activity or another useful property. As an example, envisioned in the disclosure, such hybrid may contain up to roughly 50% of the sequence of PLAP providing stability, and up to roughly 50% of the sequence of another human AP providing the catalytic alkaline phosphatase activity. The rationale for using such hybrid is that of the APs, PLAP has by far the greatest stability in the circulation, while other APs may have greater catalytic activities towards some specific substrates.

In series [6] the test system is PC-3 human prostate adenocarcinoma tumor. Kind of series: Subcutaneously administered PLAP in the cachectic PC-3 mouse tumor model. The class given is in vivo, mice. Particulars: day 28. The text has this:
PC-3 human prostate cancer cell-derived aggressive tumors are cachectic depending on the mouse strain used for tumor development. In the following experiment, a cachectic mouse model of human prostate tumor was used.
PC-3 human prostate adenocarcinoma tissue pieces (0.1 cm^3 volume) were implanted subcutaneously into the intrascapular region of 6 weeks old female mice [homozygous line of C.B .-171cr scid/scid] to develop the tumors. The mice were kept at specified pathogen free (SPF) hygienic levels. In the first group of mice (7 mice), no tumors were developed (tumor free control). In the second group of mice (7 mice), tumors were developed but remained untreated. In the third group of mice (7 mice), on days 8, 11, 14, 17, 21 and 25 after transplantation of PC-3 tumors, mice were administered 4 mg/kg of PLAP subcutaneously. The weight and total protein content of m. gastrocnemius (using a protein determination kit from Sigma), tumor weight, lean body weight (total weight minus tumor weight), and the weight of abdominal fat tissue were determined on day 28 (after tumor transplantation).

The conditions of series [7]: purified PLAP, literature (Clubb et al. 1965); cited from earlier work.
The nature of series [8]: Spectrophotometric assay of PLAP enzyme activity. It is filed as biochemical. Particulars: 10 mM 4-nitrophenylphosphate, 22° C., pH 9.8; 1 U = 1 umole substrate hydrolyzed/min. Here is the method: PLAP as determined by sodium dodecyl sulfate-polyacrylamide gel electrophoresis (SDS-PAGE). The enzyme activity of PLAP was assayed using a spectroscopic method to monitor the hydrolysis of 4-nitrophenylphosphate (as an increase in absorbance at 410 nm) at room temperature (22° C.) as described in [Chang, G.-G., Shiao, M.-S., Lec, K.-R. and Wu, J.-J., Modification of human placental alkaline phosphatase by periodate-oxidized 1,N6-ethenoadenosine monophosphate. Biochem. J., 272, 683-690, 1990]. Activity analysis of 5-10-μg purified enzyme was performed in 1 mI. incubation volume containing 50 mM Na2CO3/NaHCO3, 10 mM MgCl2, 10 mM 4-nitrophenylphosphate at pII 9.8. The extinction coefficient of 4-nitrophenol was taken as 1.62×10^4 M^−1 cm^−1. An enzyme activity of I U (unit) is defined as 1 umole substrate hydrolyzed/min at 22° C. at pH 9.8. The pure PLAP was further identified by sequence analysis performed by the Mayo Clinic Protein Core Facility (Rochester, MN, US). The specific activity of purified PLAP was 685 Units per mg protein.

[9] abbreviates: Cyp 120 mg/kg intraperitoneally, PLAP 7.5 mg/kg subcutaneously.
Where [10] appears, read: numbers in parentheses, n=7 per group.
Where [11] appears, read: m. gastrocnemius, PLAP 4 mg/kg subcutaneously on days 8, 11, 14, 17, 21, 25.

Where “and” joins values, the source holds several entries; their conditions need not be identical. Equal values may be shown once.

For “IGF-1: insulin like growth factor-1 [reference compound]”, the “L6 myoblast proliferation (A540) (minus 0-time value)” value in series [1] is listed as 0.280 ± 0.030 A540.
For the molecule “Myostatin: myostatin (MSTN) from R&D Systems, catalog no. 788-GB-010 [reference compound]”, the “L6 myoblast proliferation minus 0-time value (A540)” value is listed as 0.214 ± 0.032 A540 in series [2] (Myostatin 0.25 μg/ml, no PLAP, 2% serum) and 0.175 ± 0.030 A540 in series [2] (Myostatin 1.0 μg/ml, no PLAP, 2% serum).
Consider `O.O=P1(N(CCCl)CCCl)NCCCO1` (centres unmarked) [Cyp, 2-[Bis (2-chloroethyl)amino] tetrahydro-2H-1,3,2-oxazaphosphorine 2-oxide monohydrate], for which the “Total Muscle Protein” value in series [3] is 11.31 ± 0.43 mg per 100 mg of muscle weight. For the same molecule, the “Tumor volume Day 18” value in series [4] (Cyp 120 mg/kg intraperitoneally every second day from day 15, PLAP 7.5 mg/kg subcutaneously every 5 days) is 0.33 ± 0.11 cm^3. Further, in series [4] (setting [9]), the “Tumor volume Day 21” value came out at 0.56 ± 0.10 cm^3, the “Tumor volume Day 24” value is listed as 0.72 ± 0.20 cm^3, the “Tumor volume Day 27” value was 0.91 ± 0.22 cm^3 and the “Tumor volume Day 31” value was 1.06 ± 0.17 cm^3. In addition, in series [4] (setting [9]), the “Tumor volume Day 35” value turned out to be 1.22 ± 0.32 cm^3, the “Tumor volume Day 40” value was 1.68 ± 0.29 cm^3 and the “Tumor volume Day 46” value is 1.82 ± 0.24 cm^3. For the same molecule, the “Survival Mean” value in series [4] (T47D tumor bearing animals, n=7, monohydrate) was 49 days and 49.3 days. Moreover, in series [4] (body weight measured on day 46), the “body weight less compared to the untreated group” value was 1.4%. Also, the “Tumor volume Day 15” value in series [4] (day of first treatment, Cyp 120 mg/kg intraperitoneally, PLAP 7.5 mg/kg subcutaneously) was found to be 0.30 ± 0.11 cm^3. In addition, in series [4] (setting [10]), the “number of mice alive Day 35” value is on record as 7, the “number of mice alive Day 40” value is listed as 7 and the “number of mice alive Day 46” value is recorded as 5. Also, in series [4] (relative to untreated (None = 100)), the Survival % stood at 129%.

B1: PLAP: highly purified native placental alkaline phosphatase derived from human placenta via conventional purification methods (protein, UniProt P05187 23-506, looked up)
Alkaline phosphatase, …: IIPVEEENPDFWNREAAEALGAAKKLQPAQTAAKNLIIFLGDGMGVSTVTAARILKGQKKDKLGPEIPLAMDRFPYVALSKTYNVDKHVPDSGATATAYLCGVKGNFQTIGLSAAARFNQCNTTRGNEVISVMNRAKKAGKSVGVVTTTRVQHASPAGTYAHTVNRNWYSDADVPASARQEGCQDIATQLISNMDIDVILGGGRKYMFRMGTPDPEYPDDYSQGGTRLDGKNLVQEWLAKRQGARYVWNRTELMQASLDPSVTHLMGLFEPGDMKYEIHRDSTLDPSLMEMTEAALRLLSRNPRGFFLFVEGGRIDHGHHESRAYRALTETIMFDDAIERAGQLTSEEDTLSLVTADHSHVFSFGGYPLRGSSIFGLAPGKARDRKAYTVLLYGNGPGYVLKDGARPDVTESESGSPEYRQQSAVPLDEETHAGEDVAVFARGPQAHLVHGVQEQTFIAHVMAFAACLEPYTACDLAPPAGTTD
On to B1, for which the ATP as substrate entry in series [5] is given as “weak substrate”. In addition, the “L6 myoblast proliferation minus 0-time value (A540)” value in series [2] (PLAP 25 nM, Myostatin 0.25 μg/ml) is listed as 0.325 ± 0.038 A540; in series [2] (PLAP 25 nM, Myostatin 1.0 μg/ml) it was 0.300 ± 0.023 A540; in series [2] (PLAP 25 nM, No Myostatin), 0.410 ± 0.025 A540; in series [2] (PLAP 100 nM, Myostatin 0.25 μg/ml), 0.430 ± 0.024 A540; in series [2] (PLAP 100 nM, Myostatin 1.0 μg/ml), 0.402 ± 0.027 A540; in series [2] (PLAP 100 nM, No Myostatin), 0.541 ± 0.022 A540. Besides, the “L6 myoblast proliferation minus 0-time value (A540)” value in series [2] (PLAP 200 nM, Myostatin 0.25 μg/ml) is 0.542 ± 0.069 A540; in series [2] (PLAP 200 nM, Myostatin 1.0 μg/ml), 0.500 ± 0.033 A540; in series [2] (PLAP 200 nM, No Myostatin), 0.707 ± 0.032 A540. The “Total Muscle Protein” value in series [3] is reported as 13.20 ± 0.38 mg per 100 mg of muscle weight. The “L6 myoblast proliferation (A540) (minus 0-time value)” value in series [1] is listed as 0.267 ± 0.025 A540. Further, in series [6] (PLAP 4 mg/kg subcutaneously), the “inhibition of tumor growth” value was 32%. Moreover, the “loss of lean body weight” value in series [6] (PLAP treated tumor (41% in untreated)) stood at 18%. In series [6] (PLAP treated tumor (46% in untreated)), the “loss of abdominal fat tissue” value amounted to 12%. Moreover, the “Tumor Weight” value in series [6] (PLAP 4 mg/kg subcutaneously) was determined as 2.9 ± 0.4 g. For the same molecule, in series [6] (setting [11]), the “Muscle Mass” value turned out to be 93 ± 9 mg. Further, the “Muscle Protein” value in series [6] (setting [11]) is 13.3 ± 1.3 mg/100 mg of muscle weight. In addition, the “Lean Body Weight” value in series [6] (total weight minus tumor weight, PLAP 4 mg/kg subcutaneously) is reported as 25.9 ± 2.8 g. Besides, the “Abdominal Fat Tissue” value in series [6] (weight, PLAP 4 mg/kg subcutaneously) worked out at 0.66 ± 0.07 g. The “half-life time in human circulation” value in series [7] was “about 7 days”. Besides, in series [8], the specific activity is on record as 685 Units per mg protein.
